Paper PMC6662825

Target: Trx-NVL^167–216-(GS)3-eYFP (human) (UniProt O15381)
Assay: MST; 50 nM Trx-NVL^167–216-(GS)3-eYFP with a 1:1 dilution series of unlabeled MTR4 KOW; 50 mM Hepes/NaOH pH 7.5, 150 mM NaCl, 5% glycerol, 0.5 mM TCEP; MST power 20%, LED power 20%; triplicates

Sequence of Trx-NVL^167–216-(GS)3-eYFP (human) (O15381 167-216): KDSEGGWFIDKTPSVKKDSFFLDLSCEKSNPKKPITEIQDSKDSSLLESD

Kd: 1000 nM
B1: MTR4-KOW (domain or fragment)
chain: HKPKYCLPFLQPGRLVKVKNEGDDFGWGVVVNFSKKSNVKPNSGELDPLYVVEVLLRCSKESLKNSATEAAKPAKPDEKGEMQVVPVLVHLLSAISSVRLYIPKDLRPVDNRQSVLKSIQEVQKRFPDGIPLLDPIDDMGIQD
